Measurements as given in patent US20220098591, “STEM-LOOP COMPOSITIONS AND METHODS FOR INHIBITING VASCULAR ENDOTHELIAL GROWTN FACTOR” (DRIVE THERAPEUTICS LLC, published 2022).

Assays:
[1] = target: T1, VEGF-A121 (Homo sapiens, UniProt P15692 SEQ:1-121); assay: direct TR-FRET, RT; conditions: tags: glycan-biotinylated for SPR/FRET/AlphaLISA; Acro BioSystems, Biolegend; chain copies: 2 (stated); stem-loop
Experimental: (§1) Briefly, ALEXA FLUOR® 647-labeled aptamers were heated to 90° C. for 3 minutes and cooled to room temperature. Titrations of ALEXA FLUOR® 647-labeled aptamers and ALEXA FLUOR® 647-labeled anti-VEGF-A antibody were made in TR-FRET buffer (50 mM MOPS, pH 7.4, 125 mM NaCl, 5 mM KCl, 50 μM CHAPS, 0.1 mg/mL BSA, 1 mM CaCl₂, and 1 mM MgCl₂) in a polypropylene plate. 5 μL of aptamers or antibody were transferred to the black wall low volume 384 well assay plate (Greiner), followed by 5 μL glycan biotinylated VEGF-A₁₂₁ (2.5 nM final), and 5 μL Streptavidin-Eu (Perkin Elmer; 2.5 nM final). The plate was covered with a plate seal and subsequently incubated in the dark for 2 hours at room temperature. The plate was read on a Biotek CYTATION™ 5 plate reader. Samples were excited at 330 nm and fluorescent values were collected at 665 nm.
(§2) No protein background fluorescent values were averaged and subtracted from test compounds, with data normalized as a fold change to highest concentrations of aptamers and antibody. These values were fit using a four-parameter non-linear fit in GraphPad Prism Version 7.0.

[2] = target: T1, VEGF-A121; assay: competition; AlphaLISA, blocks KDR binding; conditions: tags: glycan-biotinylated for SPR/FRET/AlphaLISA; Acro BioSystems, Biolegend; chain copies: 2 (stated); stem-loop
Target sequence in this assay (P15692 other isoform, or with tags, fused parts or gaps): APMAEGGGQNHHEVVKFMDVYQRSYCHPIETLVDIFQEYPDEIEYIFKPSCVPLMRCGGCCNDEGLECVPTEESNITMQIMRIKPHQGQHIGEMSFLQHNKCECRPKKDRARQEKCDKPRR

[3] = target: T2, VEGF-A165 (Homo sapiens); assay: direct TR-FRET, RT; limited by VEGF-A concentration; conditions: tags: glycan-biotinylated for SPR/FRET/AlphaLISA; Acro BioSystems, R&D Systems; chain copies: 2 (inferred); stem-loop
T2 chain: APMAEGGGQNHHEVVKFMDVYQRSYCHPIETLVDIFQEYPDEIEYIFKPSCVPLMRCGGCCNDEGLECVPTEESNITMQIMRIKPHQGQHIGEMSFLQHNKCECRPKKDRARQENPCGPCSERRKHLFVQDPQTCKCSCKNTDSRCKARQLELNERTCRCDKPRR

[4] = target: T2, VEGF-A165; assay: competition; AlphaLISA, blocks KDR binding; limited by VEGF-A concentration; conditions: tags: glycan-biotinylated for SPR/FRET/AlphaLISA; Acro BioSystems, R&D Systems; chain copies: 2 (inferred); stem-loop
[5] = target: T1, VEGF-A121; assay: direct TR-FRET, RT; error not given; conditions: tags: glycan-biotinylated for SPR/FRET/AlphaLISA; Acro BioSystems, Biolegend; chain copies: 2 (stated); stem-loop
Experimental: as §1, §2

[6] = target: T2, VEGF-A165; assay: SPR; HEPES pH 7.4, 137.5 mM NaCl, 1 mM MgCl2, 1 mM CaCl2; conditions: tags: glycan-biotinylated for SPR/FRET/AlphaLISA; Acro BioSystems, R&D Systems; chain copies: 2 (inferred); stem-loop
Experimental: (§3) Aptamer 26 was identical in sequence to Aptamer 4.2 but contained a hexylamine linker in place of the C6 disulfide linker at the 5′ terminus. […] Briefly, in the SPR studies, 1.0-2.5 μg/mL of glycan biotinylated VEGF-A₁₆₅, VEGF-A₁₂₁, and VEGF-A₁₁₀ were diluted in HEPES running buffer (10 mM HEPES, 137.5 mM NaCl, 5.7 mM KCl, 1 mM MgCl₂, 1 mM CaCl₂, and 0.05% Tween20; pH 7.4) and immobilized to a streptavidin dextran chip (GE Healthcare Life Sciences) for 1-2 minutes. The chip was then blocked with 0.2 mg/mL biotin in running buffer, followed by 3 cycles of buffer blanks and regenerated with 50 mM NaOH to equilibrate the chip. […] After coating and blocking, samples were screened at 100 nM in duplicate injections at a flow rate of 25 μL/min, with an association time of 3 minutes 20 seconds and a dissociation time of 10 minutes. Regeneration conditions of chips were optimized based on the protein immobilized and effected with either 50 mM NaOH for 30 seconds or 2M guanidine HCl for 2×40 seconds.
(§4) Data was fit to a 1:1 kinetic binding model.

[7] = target: T2, VEGF-A165; assay: competition; AlphaLISA, blocks KDR binding; conditions: tags: glycan-biotinylated for SPR/FRET/AlphaLISA; Acro BioSystems, R&D Systems; chain copies: 2 (inferred); stem-loop
Experimental: Briefly, the aptamers were heated at 90° C. for 3 minutes and allowed to cool to room temperature for a minimum of 10 minutes. Aptamers and anti-VEGF-A antibody were serial diluted in a polypropylene plate and 5 μL was transferred to a white low volume 384 well Optiplate (Perkin Elmer). A solution of VEGF-A₁₆₅ (Acro BioSystems) or VEGF-A₁₂₁ (Acro BioSystems) that was glycan biotinylated was prepared and added to the assay plate containing aptamers or anti-VEGF-A antibody to yield a final assay concentration of 2 nM. A mixture of human recombinant his-tagged KDR, (Sino Biological), AlphaLISA® nickel chelate acceptor beads (Perkin Elmer), and AlphaScreen® streptavidin donor beads (Perkin Elmer) was then prepared and 10 μL was added to the assay plate. The final concentrations of KDR and beads were 5 nM and 5 ug/mL, respectively. The assay plate was sealed and incubated in the dark for approximately 2 hours, after which it was read on a Biotek CYTATION™ 5 plate reader using the Alpha 384 well optical cube. The low signal control was determined using excess anti-VEGF-A inhibitor and the high signal control was determined by buffer only.
The mechanism of action of lead aptamers was characterized by interrogating their ability to inhibit the VEGF-A:KDR interaction with both VEGF-A₁₆₅ and VEGF-A₁₂₁.

[8] = target: VEGF-A110 (Homo sapiens, UniProt P15692 SEQ:1-110); assay: SPR; HEPES pH 7.4, 1 mM MgCl2, 1 mM CaCl2; conditions: tags: glycan-biotinylated; chain copies: 2 (stated); stem-loop
Experimental: as §3, §4

[9] = target: T1, VEGF-A121; assay: SPR; HEPES pH 7.4, 1 mM MgCl2, 1 mM CaCl2; conditions: tags: glycan-biotinylated for SPR/FRET/AlphaLISA; Acro BioSystems, Biolegend; chain copies: 2 (stated); stem-loop
Experimental: as §3, §4

[10] = target: T2, VEGF-A165; assay: direct TR-FRET, MOPS pH 7.4, 1 mM CaCl2, 1 mM MgCl2, RT; conditions: tags: glycan-biotinylated for SPR/FRET/AlphaLISA; Acro BioSystems, R&D Systems; chain copies: 2 (inferred); stem-loop

| Binder | Kd [1] [nM] | IC50 [2] [nM] | Kd [3] [nM] | IC50 [4] [nM] | Kd [5] [nM] | Kd [6] [nM] | IC50 [7] [nM] | Kd [8] [nM] | Kd [9] [nM] | Kd [10] [nM] |
| --- | --- | --- | --- | --- | --- | --- | --- | --- | --- | --- |
| AGGCCGACCCGCGCGGAGGGGUUUCAUUAUCCCGUUUGUCGGCUU (ssRNA, all G 2'-F; A,C,U 2'-OMe; Sp3 joins the two parts (position 9); 5' C6NH2; 3' idT) [Aptamer 141] | 4.3 | 3.2 | 1.2 | 0.81 | – | – | – | – | – | – |
| UAGGCCGCCUCCGCGCGGAGGGGUUUCAUUAUCCCGUUUGGCGGCUUU (ssRNA, all G 2'-F; all A,C,U 2'-OMe; 5' C6NH2; 3' idT (Tables 14-16 print it without the terminal U residues)) [Aptamer 26] | – | 19 | – | – | 46 | 0.5 | 3.7 | 9.9 | 4.6 | 4 |
